# In article PMC9331743, “Portable Vertical Graphene@Au-Based Electrochemical Aptasensing Platform for Point-of-Care Testing of Tau Protein in the Blood”:
# B1: tau DNA aptamer (ssDNA)
# DNA: CAGCACCGTCAACTGAATGGGTTGGCCGGGCAGCGGGGGGTAGGCTGGTGATGCGATGGAGATGT
# modifications: 5' SH-(CH2)6 thiol linker
# Target: Tau441 (tau protein) (UniProt P10636-8 1-441)
# Assay: electrochemical aptasensor (DPV); aptamer on VG@Au electrode, MCH blocked; LOD 0.034 pg/mL, linear 0.1 pg/mL-1 ng/mL (not a Kd); Tau in PBS (10 mM, pH 7.4), 1 h at 37 C on electrode; DPV read in 5 mM Fe(CN)6 3-/4- with 0.1 M KCl
# Conditions: protein: commercial
# Tau441 (tau protein), sequence (P10636 other isoform, or with tags, fused parts or gaps): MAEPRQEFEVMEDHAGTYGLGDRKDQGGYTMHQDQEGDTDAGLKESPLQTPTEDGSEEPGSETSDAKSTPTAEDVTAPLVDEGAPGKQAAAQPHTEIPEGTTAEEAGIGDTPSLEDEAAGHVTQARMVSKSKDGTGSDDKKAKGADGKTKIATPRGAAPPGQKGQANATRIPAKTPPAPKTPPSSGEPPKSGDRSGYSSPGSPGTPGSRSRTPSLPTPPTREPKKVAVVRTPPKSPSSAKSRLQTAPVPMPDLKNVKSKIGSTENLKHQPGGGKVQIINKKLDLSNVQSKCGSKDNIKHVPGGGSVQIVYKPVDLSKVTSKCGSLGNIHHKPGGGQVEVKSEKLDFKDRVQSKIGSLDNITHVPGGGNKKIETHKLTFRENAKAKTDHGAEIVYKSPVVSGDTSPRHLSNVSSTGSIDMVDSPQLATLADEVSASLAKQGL
binder,measurement,value
B1,binding result,binds
